Values belong to the binder of their own block, whether it stands above or below them.
Tests used:
[1] = target: T1, Human TGFβ1 protein (human, UniProt P01137 279-390); test: ELISA, human TGFβ1 coated at 10 ng/well, detection with HRP goat anti-human Fc, OD450-620 [left panel]
T1 construct: also called TGFβ1 protein (Sino, 10804-HNAC); Novoprotein Inc., Cat #CA59
Method: (§1) The plates were then blocked by incubation with 1% BSA in PBS for one hour at 37° C. After blocking, the plates were washed three times with PBST (PBS containing 0.05% Tween 20). […] After binding, the plates were washed three times with PBST, incubated for one hour at 37° C. with peroxidase-labeled Goat anti-human Fc antibody (Jackson Immuno Research, Cat #109-035-098) diluted 1/20,000 in binding buffer, washed again, developed with TMB (ThermoFisher Cat #34028) for 15 minutes, and then stopped with 1M H₂SO₄. The absorbance at 450 nm-620 nm was determined.

[2] = target: T2, Human PD-1 protein (ACRObiosystems, Cat #PD1-H5221) (human, UniProt Q15116 25-167); test: ELISA, human PD-1 coated at 25 ng/well, detection with HRP goat anti-human F(ab')2, OD450-620 [left panel]
T2 construct: Bought soluble protein
Method: (§2) An ELISA assay was performed for determination of the relative binding capacity of the fusion proteins to human PD-1.
as §1, with “Human PD-1 protein (ACRObiosystems, Cat #PD1-H5221) was immobilized onto 96-well plates in PBS (Hyclone, Cat #SH30256.01) by incubation overnight at 4° C., 25 ng/well. The” for “The”, “F(ab′)²” for “Fc”, “#109-035-097)” for “#109-035-098)”, “(ThermoFisher,” for “(ThermoFisher”, “Each plate well contained 50 μL of solution” for “The absorbance”, “each step.” for “450 nm-620 nm was determined.”

[3] = target: T2, Human PD-1 protein (ACRObiosystems, Cat …); test: ELISA, human PD-1 coated at 25 ng/well, detection with HRP goat anti-human F(ab')2, OD450-620 [right panel]
Method: as §2
as §1, with “Human PD-1 protein (ACRObiosystems, Cat #PD1-H5221) was immobilized onto 96-well plates in PBS (Hyclone, Cat #SH30256.01) by incubation overnight at 4° C., 25 ng/well. The” for “The”, “F(ab′)²” for “Fc”, “#109-035-097)” for “#109-035-098)”, “(ThermoFisher,” for “(ThermoFisher”, “Each plate well contained 50 μL of solution” for “The absorbance”, “each step.” for “450 nm-620 nm was determined.”

T2 sequence (Q15116 25-167 limits assumed): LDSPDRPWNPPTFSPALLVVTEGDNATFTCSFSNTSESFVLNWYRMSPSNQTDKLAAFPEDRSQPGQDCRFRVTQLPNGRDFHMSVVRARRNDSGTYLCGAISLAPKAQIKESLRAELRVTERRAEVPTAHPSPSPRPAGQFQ
T1 sequence (P01137 279-390 limits assumed): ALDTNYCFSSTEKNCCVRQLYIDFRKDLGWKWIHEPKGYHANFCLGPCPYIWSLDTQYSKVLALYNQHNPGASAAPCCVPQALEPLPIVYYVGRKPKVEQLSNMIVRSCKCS

- EC50 [1]: 65.2 pM
B1: human TGFβR2-hFc (ACRObiosystems, Cat #TG2-H5252) (Fc fusion, UniProt P37173 23-159, looked up)
chain: TIPPHVQKSVNNDMIVTDNNGAVKFPQLCKFCDVRFSTCDNQKSCMSNCSITSICEKPQEVCVAVWRKNDENITLETVCHDPKLPYHDFILEDAASPKCIMKEKKKPGETFFMCSCSSDECNDNIIFSEEYNTSNPD
notes: Bought Fc fusion; also called positive control; not shown: human Fc of the bought fusion

- EC50 [2]: 95.7 pM
- EC50 [3]: 99.5 pM
B2: anti-PD-1 antibody 21F12-1F6 (antibody, human IgG1, kappa, L234A L235A, V domains shown)
VH: QMQLVQSGAEVKKPGASVKLSCKASGYIFQSYYIHWVRQAPGQGLEWVGVINPSGGSTTYAQKFQGRVTMTRDTSISTAYMELSRLRSDDTVVYYCARGSYSSGWDYYYYYGMDVWGKGTLVTVSS
VL: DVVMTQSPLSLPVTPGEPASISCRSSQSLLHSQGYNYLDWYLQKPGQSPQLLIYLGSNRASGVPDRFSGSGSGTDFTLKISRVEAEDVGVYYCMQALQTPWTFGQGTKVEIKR
notes: Positive control in the PD-1 ELISA; also called anti-human PD-1; antibody 21F12-1F6 in PCT/CN2019/087287

Source: patent US20210115142A1 (NANJING LEADS BIOLABS, published 2021)
